Test results taken from the Immune Epitope Database (IEDB).

Tests used:
Experiment in all cases: IEDB peptide-MHC binding, purified MHC/competitive/radioactivity; filed as Kd, often an IC50 or EC50 that approximates it; ≥ and ≤ were set here for values at or beyond the usual limits of such assays
HLA-A*68:01 = molecular target: HLA-A*68:01
HLA-A*03:01 = molecular target: HLA-A*03:01
HLA-A*33:01 = molecular target: HLA-A*33:01
HLA-A*11:01 = molecular target: HLA-A*11:01
HLA-A*31:01 = molecular target: HLA-A*31:01
HLA-A*02:06 = molecular target: HLA-A*02:06
[1] = source organism: Vaccinia virus WR
[2] = source organism: Lymphocytic choriomeningitis virus (strain Armstrong)
[3] = source organism: SARS coronavirus Tor2
[4] = source organism: Mammarenavirus choriomeningitidis
[5] = source organism: Dengue virus 1 Brazil/97-11/1997

Sequence | Kd (HLA-A*68:01; [1]) | Kd (HLA-A*03:01; [1]) | Kd (HLA-A*33:01; [1]) | Kd (HLA-A*11:01; [1]) | Kd (HLA-A*31:01; [1]) | also measured
IVRTMPNESR | 401 nM | 241 nM | 10700 nM | 16100 nM | 4820 nM | –
TAVAKCNVNH | – | – | – | – | – | Kd (HLA-A*68:01; [2]): ≥ 65300 nM; Kd (HLA-A*03:01; [2]): ≥ 70000 nM; Kd (HLA-A*33:01; [2]): ≥ 66800 nM; Kd (HLA-A*11:01; [2]): ≥ 69700 nM; Kd (HLA-A*31:01; [2]): ≥ 70000 nM
TSSFREKSR | 132 nM | ≥ 65000 nM | 844 nM | 5750 nM | 132 nM | –
FLLRHYYNK | 1340 nM | 7.31 nM | 2050 nM | 27.1 nM | 76.4 nM | –
TQIFEVYWY | 733 nM | 1850 nM | 10900 nM | 353 nM | 3800 nM | –
SLIDLQELGK | – | – | – | – | – | Kd (HLA-A*68:01; [3]): 94.5 nM; Kd (HLA-A*03:01; [3]): 183 nM; Kd (HLA-A*33:01; [3]): 1400 nM; Kd (HLA-A*11:01; [3]): 178 nM; Kd (HLA-A*31:01; [3]): 75.9 nM
QTSVNTVVR | 73.3 nM | ≥ 63600 nM | 7260 nM | 923 nM | 4010 nM | –
DILGVLTIK | 343 nM | 714 nM | 194 nM | 1120 nM | 12600 nM | –
TLYVKALTK | 185 nM | 1.93 nM | 15500 nM | 23.9 nM | 2920 nM | –
KTSKTTILSK | 3960 nM | 44.4 nM | ≥ 70000 nM | 96.4 nM | 311 nM | –
SAYLISIFMH | – | – | – | – | – | Kd (HLA-A*68:01; [4]): ≥ 70100 nM; Kd (HLA-A*03:01; [4]): 1230 nM; Kd (HLA-A*33:01; [4]): 2950 nM; Kd (HLA-A*11:01; [4]): 5630 nM; Kd (HLA-A*31:01; [4]): 659 nM
GLFCLLNRY | – | – | – | – | – | Kd (HLA-A*68:01; [3]): 16100 nM; Kd (HLA-A*03:01; [3]): 839 nM; Kd (HLA-A*33:01; [3]): 13000 nM; Kd (HLA-A*11:01; [3]): 1340 nM; Kd (HLA-A*31:01; [3]): 7160 nM
PVLKAMHDKK | ≥ 70200 nM | 8510 nM | ≥ 70000 nM | ≥ 24800 nM | ≥ 70000 nM | –
LVYFSTQQNK | 4.03 nM | 0.977 nM | ≥ 44600 nM | 1.56 nM | 5230 nM | –
VMAFIAFLR | – | – | – | – | – | Kd (HLA-A*68:01; [5]): 4.51 nM; Kd (HLA-A*03:01; [5]): 38.5 nM; Kd (HLA-A*33:01; [5]): 4.68 nM; Kd (HLA-A*11:01; [5]): 171 nM; Kd (HLA-A*31:01; [5]): 1.33 nM
GNFSWFPHK | – | – | – | – | – | Kd (HLA-A*68:01; [2]): 1830 nM; Kd (HLA-A*03:01; [2]): 159 nM; Kd (HLA-A*33:01; [2]): 6310 nM; Kd (HLA-A*11:01; [2]): 80.2 nM; Kd (HLA-A*31:01; [2]): 1350 nM

Sequence | Kd (HLA-A*68:01; [1]) | Kd (HLA-A*03:01; [1]) | Kd (HLA-A*33:01; [1]) | Kd (HLA-A*11:01; [1]) | Kd (HLA-A*31:01; [1]) | also measured
FQRALIFIL | – | – | – | – | – | Kd (HLA-A*02:06; source organism: Dengue virus 2 Jamaica/1409/1983): 16.9 nM
YANCSSISIK | 51.7 nM | 452 nM | 18100 nM | 115 nM | 4310 nM | –
LMLVTPSMTM | – | – | – | – | – | Kd (HLA-A*02:06; source organism: Dengue virus 3 Martinique/1243/1999): 974 nM
IVHSYLKNY | ≥ 23800 nM | ≥ 21600 nM | ≥ 77700 nM | 1230 nM | ≥ 25500 nM | –
WFFNNYLRK | – | – | – | – | – | Kd (HLA-A*68:01; [3]): 391 nM; Kd (HLA-A*03:01; [3]): 403 nM; Kd (HLA-A*33:01; [3]): 894 nM; Kd (HLA-A*11:01; [3]): 81.8 nM; Kd (HLA-A*31:01; [3]): 3880 nM
FVSLVKKNKK | 11.5 nM | 4660 nM | 9290 nM | 234 nM | 284 nM | –
VTTIMFLAR | – | – | – | – | – | Kd (HLA-A*68:01; [3]): 84.6 nM; Kd (HLA-A*03:01; [3]): 329 nM; Kd (HLA-A*33:01; [3]): 167 nM; Kd (HLA-A*11:01; [3]): 24.6 nM; Kd (HLA-A*31:01; [3]): 45.4 nM
LSYIYSEIK | 252 nM | 26 nM | 1590 nM | 27.3 nM | 8600 nM | –
ALINLVQYR | 258 nM | 6500 nM | 17400 nM | 3920 nM | 137 nM | –
SVKGLTPSK | – | – | – | – | – | Kd (HLA-A*68:01; [3]): 180 nM; Kd (HLA-A*03:01; [3]): 7.56 nM; Kd (HLA-A*33:01; [3]): 9270 nM; Kd (HLA-A*11:01; [3]): 13.2 nM; Kd (HLA-A*31:01; [3]): 171 nM
AAIDRQVSVK | 693 nM | 257 nM | ≥ 70000 nM | 10.6 nM | 16500 nM | –
DTIESAKTK | 5.82 nM | 4100 nM | 3590 nM | 672 nM | 11300 nM | –
EFLHYCNSY | ≥ 24600 nM | ≥ 78000 nM | 6030 nM | ≥ 31600 nM | ≥ 37700 nM | –
LFDFVNFVK | 128 nM | 812 nM | 9100 nM | 145 nM | 798 nM | –
VSLSAYIIR | 3310 nM | 8560 nM | 4000 nM | 1110 nM | 40.2 nM | –
RQVVNVITTK | – | – | – | – | – | Kd (HLA-A*68:01; [3]): 305 nM; Kd (HLA-A*03:01; [3]): 114 nM; Kd (HLA-A*33:01; [3]): ≥ 39600 nM; Kd (HLA-A*11:01; [3]): 216 nM; Kd (HLA-A*31:01; [3]): 2670 nM
